Test results taken from US20240117019A1 (UNIVERSITY OF GEORGIA RESEARCH FOUNDATION, published 2024).

How the values were obtained:
[1] = target: T1, PspA protein of pneumococcal strain TCH8431 (serotype 19A), native, in lysates or on whole bacteria (Streptococcus pneumoniae strain TCH8431 …); test: ELISA on plates coated with fixed whole bacteria, TCH8431 (19A), OD405
T1 construct: whole, on cells; also called PspA protein from strain TCH8431

[2] = target: T2, recombinant His-tagged full-length pneumococcal surface protein A (PspA) from strain TCH8431 (serotype 19A) (Streptococcus pneumoniae strain TCH8431 …); test: ELISA on coated recombinant PspA, non-linear regression fit
T2 construct: range 1-725; also called recombinant PspA

[3] = target: T3, MBP-PspA fragment 1-438 fusion protein (Streptococcus pneumoniae strain TCH8431 …, UniProt P0AEX9 27-392 = MBP); test: ELISA on coated MBP-PspA fragment, OD405
T3 construct: not shown: C-terminal His-tag encoded by the reverse primer PspA438-R

[4] = target: T4, MBP-PspA fragment 1-512 fusion protein (Streptococcus pneumoniae strain TCH8431 …, UniProt P0AEX9 27-392 = MBP); test: ELISA on coated MBP-PspA fragment, OD405
T4 construct: not shown: C-terminal His-tag encoded by the reverse primer PspA512-R

B1: human monoclonal antibody PspA16 (antibody, V domains shown)
VH: QVQLVQSGPDVKKPGASVKVSCKTSGYTFTGYYMHWVRQAPGQGLEWMGWVNPNTGGTSYAQKFQGRVTVTRDTSISTVYMELSALGSDDTAIYFCARAWAPGAEYLHHWGQGTLVTVSS
VL: EIVMTQSPGTLSLSPGETATLSCRASQSVGSSYLAWYQQKPGQAPRLLIFGASNRATGIPVRFSASGSGTDFTLTISRLEPEDFAVYYCQQHDHSPFTFGPGTKVDLK
notes: also called mAb PspA16
EC50 (read off the curve) [1]: ~0.08 µg/mL
EC50 [2]: 0.026 µg/mL
EC50 (read off the curve) [3]: ~0.04 µg/mL
EC50 (read off the curve) [4]: ~0.04 µg/mL
